Reference: publication doi:10.1101/2023.01.09.523197

Biological target: GlnR147-Alexa647;RNAP holoenzyme (Mycobacterium …, UniProt O53830;P9WGZ1;P9WGY9;P9WGY7;P9WGY5;P9WGI1 1-255;1-347;1-1178;1-1316;1-110;1-528, C61S;L148C|)
Assay: […], SEC in 20 mM Tris-HCl pH 8.0, 75 mM NaCl, 5 mM MgCl2

B1: amtB+2Cy3 (dsDNA)
DNA 1: GCCCCGGCCGTTCACCCACGCGTAACACGCACCGTGCCTTCGTCACGGCGGCGAAACAACGAGGGGCTTCCACCGAAACCGCGCTGCGTCAATGTCGTGGCGCATAACCGGCCCACCCCT
DNA 2: AGGGGTGGGCCGGTTATGCGCCACGACATTGACGCAGCGCGGTTTCGGTGGAAGCCCCTCGTTGTTTCGCCGCCGTGACGAAGGCACGGTGCGTGTTACGCGTGGGTGAACGGCCGGGGC
B1: binds.
